Measured values as given in the DeepSol protein solubility set.

Experiment: soluble on expression in E. coli; label from the status in PepcDB or PDB records

Row | Sequence | soluble on expression in E. coli
1 | MAHVVVLGAGLGGSIMAYELHQQLRSEDRITVVTRDPTYHFVPSNPWVAVGWRTRSHISADLAPTMQRLGIAFRTVPATRLVPAENRVELADGTALDYDYLVVATGPELAFDEIEGFGPEGHTQSICHVDHAEAAHAAFERFCENPGPIVVGAAQGASCFGPAYEFAFILDAALRRRRIRDRVPMTFVTSEPYIGHLGLDGVGDTKGLLESALRSRHIKWITSARISRVEAGTMHVEEVAEGGATKPHALPFGYAMMLPAFRGVKAVSGIEGLSNPRGFTLVDPHQRNPTFPNIFAVGVCVAIPPMGVTPVPVGVPKTGFMIESMVTATAHNIGALVRGKEPDEVATWNAVCLADFGDRGIAFIAQPQIPPRNVNWSAEGRWVHFAKIAFEKYFLRKVKLGTAEPLYEWAAMKMLGIDKLKAARKGLEHHHHHH | not soluble
2 | GPGSMVEHTGLKYQFFIRAASVDWDARDRESMAAGLCPLYQLLHCDVEKLQFVVYCFGEGEAYMFEKAIQTVTKYVDEEKCIMAVRSLRQRETKGHIIYDVAKKETQPAQFFFLLSYAWGMIAVSFPKVTNYDKWEKQKGAARIIMNCPAEMDVKAMCAWMKRGLDPDEQTKYWKMVETHMEKVGPIPRYIFDANKFLAHFAATEDALDGINPRDGESHFTHGGVRLWYSEDPSHKLVRVVRTRGEVGAEVFLNAPISVCLGRRIPLYFWKRDE | not soluble
3 | MSSGVAAPQPSSCVPSRVSVLSMDFEDIYRFFQDPPPHYLSKELAVCYVLAVLRHEDSYGTELIQHLETHWPNYRLSDTVLYTALKFLEDEQIISGYWKKVEGRGRPRRMYQLAQANDDRSRDLAQLWERYLSSSAATDRQLIPVEAR | soluble
4 | MGSDKIHHHHHHMLYLIGLGLSYKSDITVRGLEAIKKCSRVYLEHYTSILMAASQEELESYYGKEIILADRELVETGSKQILNNADKEDVAFLVVGDPFGATTHTDLVLRAKREAIPVEIIHNASVMNAVGACGLQLYNFGQTVSMVFFTDNWRPDSWYDKIWENRKIGLHTLVLLDIKVKEQSIENMARGRLIYEPPRYMSIAQCCEQLLEIEEKRGTKAYTPDTPAVAISRLGSSSQSFKSGTISELANYDSGEPLHSLVILGRQCHELELEYLLEFADDKEKFGKDVANDQEYFKPAAWVPPTEDDSDE | not soluble
5 | MSYPSLFAPLDLGFTTLRNRVLMGSMHTGLEEHPDGAERLAAFYAERARHGVALIVTGGIAPVPSGVVMTGGAMLNDASQLTPHRVVTDAVHAQGGKIALQILHTGRYSYQPHLVAPSAIQAPINRFMPHELTHDEILQLIDDFAHCAQLAREAGYDGVEVMGSEGYLINEFLTRRTNHRDDEWGGDYASRMRFAVEVVRAVRQRVGNDFIIIYRLSMLDLVENGGTFDETVQLAQAIEAAGASLINTGIGWHEARIPTIATPVPRGAFSWVTRKLKGHVSVPLIATNRINDPQVAETILTRGDADMVSMARPFLADAEFLTKAQSGRADEINTCIGCNQACLDRIFIGKVTSCLVNPRACHETHMPITPAIRKKNLAVVGAGPAGLAFAINAASRGHHVTLFDAQSEIGGQFTIARQIPGKEEFYETLRYYRRMIDVTGVTLKLNQRVNAEDLQPFDEAILACGIVPRRPPIDGIDHPKALTYLEVLRDKAPVGKRVAIIGCGGIGFDTAMYLSQHGESTSQNIAEFCTEWGIDTSLQQAGGLRPEGPRLARSPRQIVMLQRKTSKPGEGLGKTTGWIHRATLLARGVKMIPAVSYQKIDDDGLHLLIGGEPQLLEVDHVVICAGQEPRRELADPLRAAGKTVHLIGGCDVAMELDARRAIAQGTRLALEI | not soluble
6 | MVDMAVTPVALLEASHLHYHVQQQALINDVSLHIASGEMVAIIGPNGAGKSTLLRLLTGYLSPSHGECHLLGQNLNSWQPKALARTRAVMRQYSELAFPFSVSEVIQMGRAPYGGSQDRQALQQVMAQTDCLALAQRDYRVLSGGEQQRVQLARVLAQLWQPQPTPRWLFLDEPTSALDLYHQQHTLRLLRQLTRQEPLAVCCVLHDLNLAALYADRIMLLAQGKLVACGTPEEVLNAETLTQWYQADLGVSRHPESALPQIYLRQ | not soluble
7 | MSLNDEMKGKSGKVKVMYVRSDDDSDKRTHNPRTGKGGGRPGKSRADGGRRPARDDKQSQPRDRKWEDSPWRTVSRAPGDETPEKADHGGISGKSFIDPEVLRRQRAEETRVYGENACQALFQSRPEAIVRAWFIQSVTPRFKEALRWMAANRKAYHVVDEAELTKASGTEHHGGVCFLIKKRNGTTVQQWVSQAGAQDCVLALENESNPHNLGGMMRSCAHFGVKGVVVQDAALLESGAAIRTAEGGAEHVQPITGDNIVNVLDDFRQAGYTVVTTSSEQGKPLFKTSLPAKMVLVLGQEYEGLPDAARDPNDLRVKIDGTGNVAGLNISVATGVLLGEWWRQNKAEGHHHHHH | soluble
8 | MEKKPWEEDISIEEFKKSLNKDKITNLIIKRRWNKGKSTYHLSFNGDFEVVTKKPSTKYVTHKQLDQKLKEFKQDLMVELHDTFATKADLRDSEARINQKLEALVQVVLLHGEQINKLTQIVEKQGEQIRELQVEQKAQRQEFNARMDRLENLLVESIESTNKRFDSIEGRLDSMDSRLDSMENRLDSIEGRLDSVEGRLDSVEGRLDSMENRLDSMETRLDKIDPPK | soluble
9 | MSLSNKIVLTSPDRKTTRLLEKVRKEYDFKIDAYEATFDDAVELIRGKVAHREHWDPIIATGGATLGLLRDNLGRMPWVNIFPTEYDLVIALEQAKKTKKTIGLFNPGQIDTEAIKAVCSAIQIDAHIYRYNSWKEVLVQVEKAYQDGVEVAIGAGEKISSAVERKNIQYVSVTSGEYTIRRAFKYAQLLVDLKRNEKVSHEEGHHHHHH | not soluble
10 | MGSSHHHHHHSSGLVPRGSMNNIYPLVICGPSGVGKGTLIKKLLNEFPNYFYFSVSCTTRKKREKEKEGVDYYFIDKTIFEDKLKNEDFLEYDNYANNFYGTLKSEYDKAKEQNKICLFEMNINGVKQLKKSTHIKNALYIFIKPPSTDVLLSRLLTRNTENQEQIQKRMEQLNIELHEANLLNFNLSIINDDLTLTYQQLKNYLLNSYIHLNNHTRN | soluble
11 | MGHHHHHHSHMFGGDTLYELRCSLQLAETEREGGFSPHISPFTAVNDLGHLLGRAGFNTLTVDTDEIQVNYPGMFELMEDLQGMGESNCAWNRKALLHRDTMLAAAAVYREMYRNEDGSVPATYQIYYMIGWKYHESQARPAERGSATVSFGELGKINNLMPPGKKSQ | not soluble
12 | MGSDKIHHHHHHMNRVILFHFHFFKNAGSAVDYILEKNFGDRFVKKEFKLWPYYENIKEVIKWIENESDAVAFSSHTARLFDSTLLERRGIKIIPIIFVRHPIIRIHSAYHYERKQVDIFRPGPVIARNTDFKGYVEIRLAIPRQEFNVSNFHVFRLADMLHGEKNMKPLEKALIALKRLPFIGLVEEFEKSMTKLEETVREYFPEFKASVIRTNVQFSPDMPLEERLKIIKNEVGKDFYKKLMEINEEDMVLWEKVVDMYKEGF | not soluble
13 | SSDSFDRAPEQTKPQRAPPSSQDKIPQQNSESAMAKPQVVVAPVLMSKLSANAPEFYPSGYSSNYTESYEDGCEDYPTLSEYVQDFLNHLTEQPGSFETEIEQFAETLNGWVTTDDALQELVELIYQQATSIPNFSYMGARLCNYLSHHLTISPQSGNFRQLLLQRCRTEYEAKDQAAKGDEVTRKRFHAFVLFLGELYLNLEIKGTNGQVTRADILQVGLRELLNALFSNPMDDNLICAVKLLKLTGSVLEDTWKEKGKTDMEEIIQRIENVVLDANCSRDVKQMLLKLVELRSSNWGRVHATSTYREATPENDPNYFMNEPTFYTSDGVPFTAADPDYQEKYQELLEREDFFPDYEENGTDLSGAGDPYLDDIDDEMDPEIEEAYEKFCLESERKRKQ | not soluble
14 | MRSDVIKKGLERVPHRSLLKALGITDDEMRRPFIGIVSSWNEIIPGHVHLDKVVEAVKAGVRMAGGVPFVFPTIGICDGIAMDHRGMKFSLPSRELIADSIEIVASGFPFDGLVFVPNCDKITPGMMMAMGRLNIPSVLISGGPMLAGRYNGRDIDLITVFEAVGGYKVGKVDEETLKAIEDLACPGAGSCAGLFTANTMNSLAEALGIAPRGNGTVPAVHAKRLRMAKEAGMLVVELVKRDVKPRDIVTLDSFMNAVMVDLATGGSTNTVLHLKAIAESFGIDFDIKLFDELSRKIPHICNISPVGPYHIQDLDDAGGIYAVMKRLQENGLLKEDVMTIYLRKIGDLVREAKILNEDVIRPFDNPYHKEGGLGILFGNLAPEGAVAKLSGVPEKMMHHVGPAVVFEDGEEATKAILSGKIKKGDVVVIRYEGPKGGPGMREMLSPTSAIVGMGLAEDVALITDGRFSGGSHGAVIGHVSPEAAEGGPIGIVKDGDLIEIDFEKRTLNLLISDEEFERRMKEFTPLVKEVDSDYLRRYAFFVQSASKGAIFRKPAAALEHHHHHH | soluble
15 | MAHHHHHHMTGSTHNGGSRLIQYEDSSNKEFIRKYLVETRNEFIEKQMRALYECREIYKDDIDEVINILTYALENNDSVLLRHEVAYVIGQISNEKCNDILIKLLNDTEENLMVRHEAAEGLAAIGSDSNIEVIKKFLNDEKVEVRETCELALSSLLEKNKYAVCSCSNKDSIKEAIKKKRNDEFVSKKFNTIDPVVFTSSGNAKSVDALIEDLNNEAVPLKLRYEALFKLRDMETDVSINALGEVLIKDKKSAIFRHEVAFVLGQALHLNSLKYLISSLQNVGEHEMVRHEVALALGSLGSLNINSQEYKNVQSEIISTLKTFSKDACRVVAESCLVGLDYIAENLNMAIEVN | not soluble
16 | MGSDKIHHHHHHMHEVVQDYYGKQLQSTEDLKTSACCDVSNMPSWLKPLLANIHDEVLSRYYGCGLVCPALLEGCRILDLGCGSGRDVYALAQLVGSTGHVVGVDMTDEQLAIAKQHQDYHVDKFGYDNVTFLKGYIEKLDELNLDPNSFDIIVSNCVINLSPDKAAVMASVQRLLKPGGEFYFSDVYADRRIPQQLINDPVLYGECLSGALYWKDFERLARHADFLDPRLVEDRPLEITDPLLAAKIGDIQFFSATYRLFKIATLEDACEDHGQAVIYRGTIDQLPHHFNLDKHHAIETGRVFPVCGNTFRMLKESRFAKHFDFIGDDSRHYGIFAGCGDILPFGNQANIVSDSNVGQSVNSGSCC | not soluble
17 | MGSDKIHHHHHHLSCCGQIGKITVGNGIWGILEEGMQSKAGTADQGWALEEKLDEFNRHQHPFNGSGADESFAYVIKKGDQVVGGVAASSDDNAIGYIELLWVDETMRRQGLGRALLATVEQALQAAGCKRVRLETFDYQAPAFYLENGYHEFGKLNYDYAGVIEYFFVKMLSLPIGYNIPPAFSIEAAEDLAMEAIENKLHAYNVKMKPLLQQKMGVTFTFLAEENGQCIGGIFGYSTMYKIGYIESLWVAETNRHAGVGTALVDVLVNALKDFGCPIVHLDTMSYQGAAFYKALGFEQFGQLTYPEIDAAEVFFVKHLVSVGERTINANK | not soluble
18 | GMEMTKVTGKFDVKLTPENAYATGVGGVNLGRMALDKTFYGELEARSQGEMLSAMTAVKGSAGYVAIEQVVGKLCGRQGSFVLQHFGIMTDGQNRLHLEVVPHSGAGELTGLYGTMAISIENGQHFYEFSFCFEPASEVEG | soluble
19 | MVEKEETKKRARSSSSSSSSSSGSSSSGSSSSGSRSSSSSSSGRSRSRSPRRRDTRPPARGGRSRSPIRRGSPPRGARADRDRPMRPSPSPPRRRRPSPSPPRRDRRDRSGSRQRRRASPRRSPAARSASPAKRVVIKNLSRNVLKTHLEEIFSIYGAIKNVDLPPDRFHNHVHRGYGYVEYDNLEDAEKSIKHMDGGQIDGMAVHVEMTIGRQSVPFQRRSSPFRRRSPPPRDRMSPMRRGGRSPPPHRRRSPMGGRGSGANNMPLGGPNRFRRASRSRSPAGRRSRS | soluble
20 | MGSDKIHHHHHHMLPQGVKDQKYDQNENIPVSWNCEESDQNHNKQKRNGSPAEGKAQKGGKETQNVLEDVVPEDAEKGKNIDHSTTPMTITLSGTSRVTFSRKYSSSRPATVPMNRYSLKATFHFSLSKYTFQPVTSMSSITESLGTRSPLTTPTTDSRSFSTLTFSTKSSENTLITFEIGPFSTTIPRNLFSSGSRTMAPSSASPRM | not soluble
